PMC10786891, “Massively parallel profiling of RNA-targeting CRISPR-Cas13d”
Positions count from the first letter of the chain named. In names and notes the source's numbering stands.

Biological target: T1, EsCas13d, nuclease-dead (Eubacterium siraeum, UniProt B0MS50, R295A;H300A;R849A;H854A)
T1 sequence: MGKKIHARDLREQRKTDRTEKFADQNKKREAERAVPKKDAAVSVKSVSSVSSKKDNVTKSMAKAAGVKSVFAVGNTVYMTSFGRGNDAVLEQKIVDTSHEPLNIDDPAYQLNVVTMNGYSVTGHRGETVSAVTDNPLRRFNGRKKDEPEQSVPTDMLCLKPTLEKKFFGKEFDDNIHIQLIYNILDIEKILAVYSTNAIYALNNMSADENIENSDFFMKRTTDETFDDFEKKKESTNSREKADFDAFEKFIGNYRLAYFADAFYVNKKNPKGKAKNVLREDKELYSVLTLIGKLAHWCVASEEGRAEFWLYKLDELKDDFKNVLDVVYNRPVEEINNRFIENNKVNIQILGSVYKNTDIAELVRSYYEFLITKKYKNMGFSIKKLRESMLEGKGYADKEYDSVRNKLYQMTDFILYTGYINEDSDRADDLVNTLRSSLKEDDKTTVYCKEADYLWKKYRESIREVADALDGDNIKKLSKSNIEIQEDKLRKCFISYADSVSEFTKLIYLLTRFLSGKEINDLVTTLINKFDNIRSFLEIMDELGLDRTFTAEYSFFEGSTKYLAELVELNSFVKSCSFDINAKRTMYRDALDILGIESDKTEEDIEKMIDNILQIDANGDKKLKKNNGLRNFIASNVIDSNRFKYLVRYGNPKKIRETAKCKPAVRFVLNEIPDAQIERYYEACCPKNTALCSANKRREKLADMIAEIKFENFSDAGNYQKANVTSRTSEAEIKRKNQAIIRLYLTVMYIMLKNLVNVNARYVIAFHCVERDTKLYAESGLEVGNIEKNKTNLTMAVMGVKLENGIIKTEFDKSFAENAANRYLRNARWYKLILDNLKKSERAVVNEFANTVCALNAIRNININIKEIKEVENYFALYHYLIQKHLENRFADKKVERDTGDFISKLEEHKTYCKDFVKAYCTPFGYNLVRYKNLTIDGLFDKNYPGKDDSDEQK
Experiment: crRNA (strand 1, pre-loaded); Mg2+; 40 mM Tris-HCl pH 7.5, 150 mM NaCl, 6 mM MgCl2, 1 mM DTT, 0.1% Tween-20, 0.2 mg/ml BSA; 25 C; 10 min per concentration, then washed
Conditions: tags: His6-TwinStrep-SUMO cleaved; N-terminal SNAP kept (SNAP-Surface 488); label: 3' end held by stalled T7 RNA polymerase

B1: target 1 insC 3' of 13,insG 3' of 2 (mixed)
RNA 1: CACCCGUGCAAAAAUGCAGGGGUCUAAAACUGAGCGGAUAACCUCUCUAUGG
RNA 2: GGGAAUGGAUCCACAUCUACGAAUUCGUACCAUAGAGAGCGUUAUCCGCUCGACCGAGAUCGGAAGAGCACACGU
  Kd: 11.4 ± 0.5 nM

B2: target 1 insU 3' of 15,insG 3' of 4 (mixed)
RNA 1: B1 RNA 1
RNA 2: B1 RNA 2 with A38U, G39A, C40G, U50G, C51U, G52C
  Kd: 13.5 ± 1.3 nM

B3: target 1 A1U,G5U (mixed)
RNA 1: B1 RNA 1
RNA 2: GGGAAUGGAUCCACAUCUACGAAUUCGUACCAUAGAGAGGUUAUCCUCUCUCCGAGAUCGGAAGAGCACACGU
  Kd: 73 ± 11 nM

B4: target 1 C7G,U19A (mixed)
RNA 1: B1 RNA 1
RNA 2: B3 RNA 2 with U33A, C45G, U47G, U51A
  Kd: 56 ± 9 nM

B5: target 1 C7A,C21U (mixed)
RNA 1: B1 RNA 1
RNA 2: B3 RNA 2 with C31U, C45A, U47G, U51A
  Kd: 6.56 ± 0.31 nM

B6: target 1 complement block 2-9 (mixed)
RNA 1: B1 RNA 1
RNA 2: B3 RNA 2 with A43U, U44A, C45G, C46G, U47C, C48G, U49A, C50G, U51A
  Kd: 7.29 ± 0.23 nM

B7: target 1 C4A,C6U (mixed)
RNA 1: B1 RNA 1
RNA 2: B3 RNA 2 with C46U, U47G, C48A, U51A
  Kd: 4.16 ± 0.27 nM

B8: target 1 C6G,A20U (mixed)
RNA 1: B1 RNA 1
RNA 2: B3 RNA 2 with A32U, C46G, U47G, U51A
  Kd: 40.5 ± 2.5 nM

B9: target 1 insG 3' of 9,insG 3' of 2 (mixed)
RNA 1: B1 RNA 1
RNA 2: B1 RNA 2 with C40G, G41U, U43A, A44G
  Kd: 17.2 ± 1 nM

B10: target 1 C6A,A14U (mixed)
RNA 1: B1 RNA 1
RNA 2: B3 RNA 2 with A38U, C46A, U47G, U51A
  Kd: 54 ± 9 nM

B11: target 1 insC 3' of 16,insC 3' of 13 (mixed)
RNA 1: B1 RNA 1
RNA 2: GGGAAUGGAUCCACAUCUACGAAUUCGUACCAUAGACGAGCGUUAUCCGCUCACCGAGAUCGGAAGAGCACACGU
  Kd: 83 ± 27 nM

B12: target 1 C2U,A16C (mixed)
RNA 1: B1 RNA 1
RNA 2: B3 RNA 2 with A36C, U47G, C50U, U51A
  Kd: 56 ± 4 nM

B13: target 1 insU 3' of 14,insG 3' of 3 (mixed)
RNA 1: B1 RNA 1
RNA 2: B1 RNA 2 with G39U, C40G, C51G, G52C
  Kd: 34 ± 4 nM

B14: target 1 insG 3' of 22,insA 3' of 19 (mixed)
RNA 1: B1 RNA 1
RNA 2: GGGAAUGGAUCCACAUCUACGAAUUCGUACGCAUAAGAGAGGUUAUCCGCUCACCGAGAUCGGAAGAGCACACGU
  Kd: 63 ± 10 nM

B15: target 1 insG 3' of 16 (mixed)
RNA 1: B1 RNA 1
RNA 2: GGGAAUGGAUCCACAUCUACGAAUUCGUACCAUAGAGGAGGUUAUCCGCUCACCGAGAUCGGAAGAGCACACGU
  Kd: 12.1 ± 1.1 nM

B16: target 1 insA 3' of 12,insC 3' of 9 (mixed)
RNA 1: B1 RNA 1
RNA 2: B11 RNA 2 with C37G, G38A, A39G, C41A, G42U, U44A, A45C
  Kd: 40 ± 5 nM

B17: target 1 C2U,U19G (mixed)
RNA 1: B1 RNA 1
RNA 2: B3 RNA 2 with U33G, U47G, C50U, U51A
  Kd: 52 ± 4 nM

B18: target 1 C6A,U19C (mixed)
RNA 1: B1 RNA 1
RNA 2: B3 RNA 2 with U33C, C46A, U47G, U51A
  Kd: 21.3 ± 1.9 nM

B19: target 1 insU 3' of 20,insG 3' of 7 (mixed)
RNA 1: B1 RNA 1
RNA 2: GGGAAUGGAUCCACAUCUACGAAUUCGUACCAUUAGAGAGGUUAUCGCGCUCACCGAGAUCGGAAGAGCACACGU
  Kd: 11.8 ± 0.6 nM

B20: target 1 insC 3' of 15,insA 3' of 4 (mixed)
RNA 1: B1 RNA 1
RNA 2: B1 RNA 2 with A38C, G39A, C40G, U50A, C51U, G52C
  Kd: 6.5 ± 0.5 nM

B21: target 1 insA 3' of 21,insA 3' of 15 (mixed)
RNA 1: B1 RNA 1
RNA 2: B14 RNA 2 with G31C, C32A, A36G, G37A, A38G, G39A
  Kd: 9.4 ± 0.6 nM

B22: target 1 insG 3' of 8,insG 3' of 8 (mixed)
RNA 1: B1 RNA 1
RNA 2: B11 RNA 2 with C37G, G38A, A39G, C41U, G42U, U43A, A45G, U46G
  Kd: 45.3 ± 3.2 nM

B23: target 1 insC 3' of 20,insU 3' of 14 (mixed)
RNA 1: B1 RNA 1
RNA 2: B11 RNA 2 with U33C, A34U, G35A, A36G, C37A, G40U, C41G
  Kd: 5.5 ± 0.8 nM

B24: target 1 G12A,C22U (mixed)
RNA 1: B1 RNA 1
RNA 2: B3 RNA 2 with C30U, G40A, U47G, U51A
  Kd: 13 ± 1.1 nM

B25: target 1 C2A,U8C (mixed)
RNA 1: B1 RNA 1
RNA 2: B3 RNA 2 with U44C, U47G, C50A, U51A
  Kd: 5.2 ± 0.4 nM

B26: target 1 insC 3' of 22,insC 3' of 18 (mixed)
RNA 1: B1 RNA 1
RNA 2: B14 RNA 2 with G31C, A36C
  Kd: 41 ± 16 nM

B27: target 1 insG 3' of 7,insA 3' of 6 (mixed)
RNA 1: B1 RNA 1
RNA 2: B11 RNA 2 with C37G, G38A, A39G, C41U, G42U, U43A, A45C, U46G, C48A
  Kd: 9 ± 0.6 nM

B28: target 1 insU 3' of 21,insG 3' of 21 (mixed)
RNA 1: B1 RNA 1
RNA 2: B14 RNA 2 with G31C, C32U, A33G, U34A, A35U
  Kd: 54 ± 6 nM

B29: target 1 C2U,C22A (mixed)
RNA 1: B1 RNA 1
RNA 2: B3 RNA 2 with C30A, U47G, C50U, U51A
  Kd: 16.2 ± 1.2 nM

B30: target 1 insG 3' of 19,insA 3' of 19 (mixed)
RNA 1: B1 RNA 1
RNA 2: B14 RNA 2 with G31C, C32A, A33U, U34G
  Kd: 50 ± 7 nM

B31: target 1 insU 3' of 15,insG 3' of 9 (mixed)
RNA 1: B1 RNA 1
RNA 2: B11 RNA 2 with C37G, G38U, C41G, G42U, U44A, A45G
  Kd: 13 ± 0.6 nM

B32: target 1 insA 3' of 8,insU 3' of 5 (mixed)
RNA 1: B1 RNA 1
RNA 2: B11 RNA 2 with C37G, G38A, A39G, C41U, G42U, U43A, U46C, C48G, G49U
  Kd: 22 ± 1.8 nM

B33: target 1 insC 3' of 16,insG 3' of 3 (mixed)
RNA 1: B1 RNA 1
RNA 2: B1 RNA 2 with G37C, A38G, G39A, C40G, C51G, G52C
  Kd: 50 ± 8 nM
